Numbering of substitutions follows the chain as printed. Names and notes keep the numbering of the source.
B1: SPA-PEG 5000-conjugated hG-CSF K16R K34R K40R Q90K Q120K T133K (ligand)
chain: TPLGPASSLPQSFLLRCLEQVRKIQGDGAALQERLCATYRLCHPEELVLLGHSLGIPWAPLSSCPSQALQLAGCLSQLHSGLFLYQGLLKALEGISPELGPTLDTLQLDVADFATTIWQKMEELGMAPALQPKQGAMPAFASAFQRRAGGVLVASHLQSFLEVSYRVLRHLAQP
modifications: SPA-PEG 5000 on the available PEGylation sites
B2: SPA-PEG 5000-conjugated hG-CSF K16R K34R K40R Q70K Q120K (ligand)
chain: B1 chain with Q70K, K90Q, K133T
modifications: SPA-PEG 5000 on the available PEGylation sites
B3: SPA-PEG 5000-conjugated hG-CSF K16R K34R K40R Q70K Q90K T105K (ligand)
chain: B1 chain with Q70K, T105K, K120Q, K133T
modifications: SPA-PEG 5000 on the available PEGylation sites
B4: SPA-PEG 5000-conjugated hG-CSF K16R K34R K40R Q70K Q90K Q120K (ligand)
chain: B1 chain with Q70K, K133T
modifications: SPA-PEG 5000 on the available PEGylation sites
B5: SPA-PEG 5000-conjugated hG-CSF K16R K34R K40R Q70K Q120K T133K (ligand)
chain: B1 chain with Q70K, K90Q
modifications: SPA-PEG 5000 on the available PEGylation sites
B6: non-conjugated hG-CSF (Neupogen) (ligand)
chain: B1 chain with R16K, R34K, R40K, K90Q, K120Q, K133T
B7: SPA-PEG 5000-conjugated hG-CSF K16R K34R K40R (ligand)
chain: B1 chain with K90Q, K120Q, K133T
modifications: SPA-PEG 5000 on the available PEGylation sites
B8: SPA-PEG 12000-conjugated hG-CSF K16R K34R K40R (ligand)
chain: B1 chain with K90Q, K120Q, K133T
modifications: SPA-PEG 12000; mainly 2 and 3 PEG groups attached
B9: SPA-PEG 20000-conjugated hG-CSF K16R K34R K40R (ligand)
chain: B1 chain with K90Q, K120Q, K133T
modifications: SPA-PEG 20000

Molecular target: T1, human G-CSF receptor (human, UniProt Q99062 25-836)
T1 sequence (looked up): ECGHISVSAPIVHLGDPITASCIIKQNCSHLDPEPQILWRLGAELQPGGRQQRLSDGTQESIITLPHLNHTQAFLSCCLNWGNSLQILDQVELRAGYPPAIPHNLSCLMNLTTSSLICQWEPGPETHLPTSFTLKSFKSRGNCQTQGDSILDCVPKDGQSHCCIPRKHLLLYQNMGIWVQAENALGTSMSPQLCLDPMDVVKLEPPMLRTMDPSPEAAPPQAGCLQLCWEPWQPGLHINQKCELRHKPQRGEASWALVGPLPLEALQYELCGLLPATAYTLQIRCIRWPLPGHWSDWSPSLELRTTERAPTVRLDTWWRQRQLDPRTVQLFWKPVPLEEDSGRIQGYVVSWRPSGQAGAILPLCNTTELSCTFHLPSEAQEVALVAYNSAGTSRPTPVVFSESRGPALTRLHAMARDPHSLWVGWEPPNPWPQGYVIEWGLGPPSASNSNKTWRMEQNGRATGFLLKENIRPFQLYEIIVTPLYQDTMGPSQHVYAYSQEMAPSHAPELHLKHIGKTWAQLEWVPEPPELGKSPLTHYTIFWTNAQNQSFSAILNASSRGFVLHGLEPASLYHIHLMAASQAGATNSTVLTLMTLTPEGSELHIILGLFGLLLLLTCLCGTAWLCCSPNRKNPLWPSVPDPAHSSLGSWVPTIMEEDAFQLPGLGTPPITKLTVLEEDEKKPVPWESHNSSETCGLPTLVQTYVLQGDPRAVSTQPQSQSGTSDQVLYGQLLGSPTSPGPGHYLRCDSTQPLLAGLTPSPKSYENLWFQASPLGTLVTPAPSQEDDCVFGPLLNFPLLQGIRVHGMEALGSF
Test: cell-based or functional assay

Binder	EC50 (% of hG-CSF) conjugated to SPA-PEG 5000
B1	5 % of hG-CSF
B2	15 % of hG-CSF
B3	2 % of hG-CSF
B4	10 % of hG-CSF
B5	5 % of hG-CSF

Molecular target: T1, human G-CSF receptor
Test: cell-based or functional assay
Remark: another data set of the same source

Binder	EC50, BaF3/hGCSF-R/pfos-lux luciferase assay	in vitro EC50 (% of non-conjugated hG-CSF (Neupogen))
B6	0.03 nM	–
B7	–	35 % of non-conjugated hG-CSF (Neupogen)
B8	–	10 % of non-conjugated hG-CSF (Neupogen)
B9	–	1 % of non-conjugated hG-CSF (Neupogen)
